Results reported in PMC5669353 (Biochemistry and Biophysics Reports, 2015).
Values belong to the molecule of their own block, whether it stands above or below them.

Assays:
lactoperoxidase [1] = biological target: T1, lactoperoxidase (Bos taurus, UniProt P80025); type: biochemical
lactoperoxidase [2] = biological target: T1, lactoperoxidase; conditions: read-out: Km, / µM; 80 uM H2O2, 2 mM SCN-, pH 7.4, 37 C; substrate
[3] = test system: O=c1c(O)c(-c2ccc(O)c(O)c2)oc2cc(O)cc(O)c12; test: purified protein; conditions: heme
[4] = test system: O=C(O)/C=C/c1ccc(O)c(O)c1; test: purified protein; conditions: heme
O=C(O)c1ccc(O)c(O)c1 = test: purified protein; conditions: heme
[5] = test system: O=C1C[C@@H](c2ccc(O)c(O)c2)Oc2cc(O)cc(O)c21; test: purified protein; conditions: heme
[6] = test system: O=c1cc(-c2ccc(O)c(O)c2)oc2cc(O)cc(O)c12; test: purified protein; conditions: heme
OCCc1ccc(O)c(O)c1 = test: purified protein; conditions: heme substrate channel of LPO
[7] = test system: Oc1cc(O)c2c(c1)O[C@H](c1ccc(O)c(O)c1)[C@H](O)C2; test: purified protein; conditions: heme
[8] = test system: O=c1cc(-c2ccc(O)cc2)oc2cc(O)cc(O)c12; test: purified protein; conditions: heme
O=C(O)c1cc(O)ccc1O = test: purified protein, by the assay type
O=C(O)c1ccc(O)c(O)c1O = test: purified protein, by the assay type
OCCc1ccc(O)cc1 = test: purified protein, by the assay type
O=C(O)c1ccccc1O = test: purified protein, by the assay type
O=C(O)c1ccc(O)cc1O = test: purified protein, by the assay type
[9] = test system: O=C1C[C@@H](c2ccc(O)c(O)c2)Oc2cc(O)cc(O)c21; test: purified protein, by the assay type
COc1ccc(C(=O)O)cc1O = test: purified protein, by the assay type
O=C(O)c1c(O)cccc1O = test: purified protein, by the assay type
O=C(O)c1cc(O)cc(O)c1 = test: purified protein, by the assay type
O=C(O)/C=C/c1cccc(O)c1 = test: purified protein, by the assay type
O=C(O)c1cccc(O)c1O = test: purified protein, by the assay type
O=C(O)c1cccc(O)c1 = test: purified protein, by the assay type
[10] = test system: O=C1C[C@@H](c2ccc(O)cc2)Oc2cc(O)cc(O)c21; test: purified protein, by the assay type
O=C(O)c1cc(O)c(O)c(O)c1 = test: purified protein, by the assay type
[11] = test system: O=C1c2c(O)cc(O)cc2O[C@H](c2ccc(O)c(O)c2)[C@H]1O; test: purified protein, by the assay type
O=C(O)/C=C/c1ccc(O)cc1 = test: purified protein, by the assay type
O=C(O)c1ccc(O)cc1 = test: purified protein, by the assay type
COc1cc(C(=O)O)ccc1O = test: purified protein, by the assay type

IC50 (lactoperoxidase [1]): 0.23 ± 0.15 µM
Molecule: O=c1cc(-c2ccccc2)oc2cc(O)cc(O)c12 [chrysin]

Molecule: COc1ccc(C(=O)O)cc1OC [3,4-dimethoxybenzoic acid]
Km (lactoperoxidase [2]): 981 ± 69.8 µM

IC50 (lactoperoxidase [1]): 36.7 ± 9.6 µM
Molecule: O=C(O)c1c(O)cc(O)cc1O [2,4,6-trihydroxybenzoic acid]

Molecule: lactoperoxidase (Bos taurus)
Km [3]: 1.7 ± 0.2 µM | kcat [3]: 102 s⁻¹ | kcat/Km [3]: 6.07e+07 M⁻¹ s⁻¹ | Km [4]: 6.9 ± 0.3 µM | kcat [4]: 37.2 s⁻¹ | kcat/Km [4]: 5.4e+06 M⁻¹ s⁻¹ | Km (O=C(O)c1ccc(O)c(O)c1): 63.9 ± 51.4 µM | kcat (O=C(O)c1ccc(O)c(O)c1): 59.2 s⁻¹ | kcat/Km (O=C(O)c1ccc(O)c(O)c1): 930000 M⁻¹ s⁻¹ | Km [5]: 0.358 ± 0.005 µM | Km [6]: 0.2 ± 0.0 µM | kcat [6]: 91.6 s⁻¹ | kcat/Km [6]: 4.72e+08 M⁻¹ s⁻¹ | Km (OCCc1ccc(O)c(O)c1): 1.6 ± 0.1 µM | kcat (OCCc1ccc(O)c(O)c1): 67 s⁻¹ | kcat/Km (OCCc1ccc(O)c(O)c1): 4.21e+07 M⁻¹ s⁻¹ | Km [7]: 0.6 ± 0.0 µM | kcat [7]: 41.4 s⁻¹ | kcat/Km [7]: 6.84e+07 M⁻¹ s⁻¹ | Km [8]: 0.1 ± 0.0 µM | kcat [8]: 13.1 s⁻¹ | kcat/Km [8]: 1.22e+08 M⁻¹ s⁻¹ | Km (O=C(O)c1cc(O)ccc1O): 304.2 ± 0.1 µM | kcat (O=C(O)c1cc(O)ccc1O): 22.4 s⁻¹ | kcat/Km (O=C(O)c1cc(O)ccc1O): 70000 M⁻¹ s⁻¹ | Km (O=C(O)c1ccc(O)c(O)c1O): 84.8 ± 0.0 µM | kcat (O=C(O)c1ccc(O)c(O)c1O): 24.5 s⁻¹ | kcat/Km (O=C(O)c1ccc(O)c(O)c1O): 290000 M⁻¹ s⁻¹ | Km (OCCc1ccc(O)cc1): 4.5 ± 0.0 µM | kcat (OCCc1ccc(O)cc1): 39 s⁻¹ | kcat/Km (OCCc1ccc(O)cc1): 8.73e+06 M⁻¹ s⁻¹ | Km (O=C(O)c1ccccc1O): 1638.4 ± 439.3 µM | Km (O=C(O)c1ccc(O)cc1O): 119.6 ± 8.3 µM | kcat (O=C(O)c1ccc(O)cc1O): 7 s⁻¹ | kcat/Km (O=C(O)c1ccc(O)cc1O): 60000 M⁻¹ s⁻¹ | Km [9]: 0.4 ± 0.0 µM | kcat [9]: 52.4 s⁻¹ | kcat/Km [9]: 1.46e+08 M⁻¹ s⁻¹ | Km (COc1ccc(C(=O)O)cc1O): 803.5 ± 147.2 µM | kcat (COc1ccc(C(=O)O)cc1O): 67.7 s⁻¹ | kcat/Km (COc1ccc(C(=O)O)cc1O): 80000 M⁻¹ s⁻¹ | Km (O=C(O)c1c(O)cccc1O): 149.1 ± 51.4 µM | kcat (O=C(O)c1c(O)cccc1O): 14.8 s⁻¹ | kcat/Km (O=C(O)c1c(O)cccc1O): 100000 M⁻¹ s⁻¹ | Km (O=C(O)c1cc(O)cc(O)c1): 118.0 ± 7.9 µM | kcat (O=C(O)c1cc(O)cc(O)c1): 22.7 s⁻¹ | kcat/Km (O=C(O)c1cc(O)cc(O)c1): 190000 M⁻¹ s⁻¹ | Km (O=C(O)/C=C/c1cccc(O)c1): 37.8 ± 8.9 µM | kcat (O=C(O)/C=C/c1cccc(O)c1): 24 s⁻¹ | kcat/Km (O=C(O)/C=C/c1cccc(O)c1): 630000 M⁻¹ s⁻¹ | Km (O=C(O)c1cccc(O)c1O): 71.3 ± 1.3 µM | kcat (O=C(O)c1cccc(O)c1O): 17.9 s⁻¹ | kcat/Km (O=C(O)c1cccc(O)c1O): 250000 M⁻¹ s⁻¹ | Km (O=C(O)c1cccc(O)c1): 144.2 ± 28.9 µM | kcat (O=C(O)c1cccc(O)c1): 36.5 s⁻¹ | kcat/Km (O=C(O)c1cccc(O)c1): 250000 M⁻¹ s⁻¹ | Km [10]: 0.2 ± 0.0 µM | kcat [10]: 19 s⁻¹ | kcat/Km [10]: 1.03e+08 M⁻¹ s⁻¹ | Km (O=C(O)c1cc(O)c(O)c(O)c1): 176.8 ± 0.0 µM | kcat (O=C(O)c1cc(O)c(O)c(O)c1): 30.9 s⁻¹ | kcat/Km (O=C(O)c1cc(O)c(O)c(O)c1): 180000 M⁻¹ s⁻¹ | Km [11]: 0.8 ± 0.0 µM | kcat [11]: 48.2 s⁻¹ | kcat/Km [11]: 6.3e+07 M⁻¹ s⁻¹ | Km (O=C(O)/C=C/c1ccc(O)cc1): 35.1 ± 0.1 µM | kcat (O=C(O)/C=C/c1ccc(O)cc1): 11 s⁻¹ | kcat/Km (O=C(O)/C=C/c1ccc(O)cc1): 310000 M⁻¹ s⁻¹ | Km (O=C(O)c1ccc(O)cc1): 119.6 ± 8.1 µM | kcat (O=C(O)c1ccc(O)cc1): 16.7 s⁻¹ | kcat/Km (O=C(O)c1ccc(O)cc1): 140000 M⁻¹ s⁻¹ | Km (COc1cc(C(=O)O)ccc1O): 948.4 ± 0.2 µM | kcat (COc1cc(C(=O)O)ccc1O): 78.5 s⁻¹ | kcat/Km (COc1cc(C(=O)O)ccc1O): 80000 M⁻¹ s⁻¹
